Experimental data: patent publication US20130336893A1 (Sanofi, published 2013)
*1 amine or outer side, *2 acyl side, *3 side chain or, on linkers, in order; H or OH if unused. Where no end group is shown, it is not given here. Side-chain parts run from the residue outwards. [ ]: non-standard residue; d: D form. The star is where a group is joined. γGlu = O=C(O)[C@H](CCC(=O)[*:2])N[*:1]; Palmitoyl = CCCCCCCCCCCCCCCC(=O)*; Aib = CC(C)(N)C(=O)O

B1: SEQ ID NO: (73) (peptide)
peptide: H[dS]QGTFTSDLSKQMESRRAQDFIEWLK[Aib]GGPSSGAPPPSK([γGlu-Palmitoyl])-NH2
B2: SEQ ID NO: (76) (peptide)
peptide: H[dS]QGTFTSDLSKQMESRRAQDFIEWLKR[dA]GPSSGAPPPSK([γGlu-Palmitoyl])-NH2
modifications: N-terminus assumed
SMILES: CCCCCCCCCCCCCCCC(=O)N[C@@H](CCC(=O)NCCCC[C@H](NC(=O)[C@H](CO)NC(=O)[C@@H]1CCCN1C(=O)[C@@H]1CCCN1C(=O)[C@@H]1CCCN1C(=O)[C@H](C)NC(=O)CNC(=O)[C@H](CO)NC(=O)[C@H](CO)NC(=O)[C@@H]1CCCN1C(=O)CNC(=O)[C@@H](C)NC(=O)[C@H](CCCNC(=N)N)NC(=O)[C@H](CCCCN)NC(=O)[C@H](CC(C)C)NC(=O)[C@H](Cc1c[nH]c2ccccc12)NC(=O)[C@H](CCC(=O)O)NC(=O)[C@@H](NC(=O)[C@H](Cc1ccccc1)NC(=O)[C@H](CC(=O)O)NC(=O)[C@H](CCC(N)=O)NC(=O)[C@H](C)NC(=O)[C@H](CCCNC(=N)N)NC(=O)[C@H](CCCNC(=N)N)NC(=O)[C@H](CO)NC(=O)[C@H](CCC(=O)O)NC(=O)[C@H](CCSC)NC(=O)[C@H](CCC(N)=O)NC(=O)[C@H](CCCCN)NC(=O)[C@H](CO)NC(=O)[C@H](CC(C)C)NC(=O)[C@H](CC(=O)O)NC(=O)[C@H](CO)NC(=O)[C@@H](NC(=O)[C@H](Cc1ccccc1)NC(=O)[C@@H](NC(=O)CNC(=O)[C@H](CCC(N)=O)NC(=O)[C@@H](CO)NC(=O)[C@@H](N)Cc1c[nH]cn1)[C@@H](C)O)[C@@H](C)O)[C@@H](C)CC)C(N)=O)C(=O)O
B3: SEQ ID NO: (74) (peptide)
peptide: H[dS]QGTFTSDLSKQMESRRAQDFIEWLKNTGPSSGAPPPSK([γGlu-Palmitoyl])-NH2
modifications: N-terminus assumed
SMILES: CCCCCCCCCCCCCCCC(=O)N[C@@H](CCC(=O)NCCCC[C@H](NC(=O)[C@H](CO)NC(=O)[C@@H]1CCCN1C(=O)[C@@H]1CCCN1C(=O)[C@@H]1CCCN1C(=O)[C@H](C)NC(=O)CNC(=O)[C@H](CO)NC(=O)[C@H](CO)NC(=O)[C@@H]1CCCN1C(=O)CNC(=O)[C@@H](NC(=O)[C@H](CC(N)=O)NC(=O)[C@H](CCCCN)NC(=O)[C@H](CC(C)C)NC(=O)[C@H](Cc1c[nH]c2ccccc12)NC(=O)[C@H](CCC(=O)O)NC(=O)[C@@H](NC(=O)[C@H](Cc1ccccc1)NC(=O)[C@H](CC(=O)O)NC(=O)[C@H](CCC(N)=O)NC(=O)[C@H](C)NC(=O)[C@H](CCCNC(=N)N)NC(=O)[C@H](CCCNC(=N)N)NC(=O)[C@H](CO)NC(=O)[C@H](CCC(=O)O)NC(=O)[C@H](CCSC)NC(=O)[C@H](CCC(N)=O)NC(=O)[C@H](CCCCN)NC(=O)[C@H](CO)NC(=O)[C@H](CC(C)C)NC(=O)[C@H](CC(=O)O)NC(=O)[C@H](CO)NC(=O)[C@@H](NC(=O)[C@H](Cc1ccccc1)NC(=O)[C@@H](NC(=O)CNC(=O)[C@H](CCC(N)=O)NC(=O)[C@@H](CO)NC(=O)[C@@H](N)Cc1c[nH]cn1)[C@@H](C)O)[C@@H](C)O)[C@@H](C)CC)[C@@H](C)O)C(N)=O)C(=O)O
B4: SEQ ID NO: (70) (peptide)
peptide: H[dS]QGTFTSDLSKQMDERRAKDFIEWLKNGGPSSGAPPPSK([γGlu-Palmitoyl])-NH2
modifications: N-terminus assumed
SMILES: CCCCCCCCCCCCCCCC(=O)N[C@@H](CCC(=O)NCCCC[C@H](NC(=O)[C@H](CO)NC(=O)[C@@H]1CCCN1C(=O)[C@@H]1CCCN1C(=O)[C@@H]1CCCN1C(=O)[C@H](C)NC(=O)CNC(=O)[C@H](CO)NC(=O)[C@H](CO)NC(=O)[C@@H]1CCCN1C(=O)CNC(=O)CNC(=O)[C@H](CC(N)=O)NC(=O)[C@H](CCCCN)NC(=O)[C@H](CC(C)C)NC(=O)[C@H](Cc1c[nH]c2ccccc12)NC(=O)[C@H](CCC(=O)O)NC(=O)[C@@H](NC(=O)[C@H](Cc1ccccc1)NC(=O)[C@H](CC(=O)O)NC(=O)[C@H](CCCCN)NC(=O)[C@H](C)NC(=O)[C@H](CCCNC(=N)N)NC(=O)[C@H](CCCNC(=N)N)NC(=O)[C@H](CCC(=O)O)NC(=O)[C@H](CC(=O)O)NC(=O)[C@H](CCSC)NC(=O)[C@H](CCC(N)=O)NC(=O)[C@H](CCCCN)NC(=O)[C@H](CO)NC(=O)[C@H](CC(C)C)NC(=O)[C@H](CC(=O)O)NC(=O)[C@H](CO)NC(=O)[C@@H](NC(=O)[C@H](Cc1ccccc1)NC(=O)[C@@H](NC(=O)CNC(=O)[C@H](CCC(N)=O)NC(=O)[C@@H](CO)NC(=O)[C@@H](N)Cc1c[nH]cn1)[C@@H](C)O)[C@@H](C)O)[C@@H](C)CC)C(N)=O)C(=O)O
B5: SEQ ID NO: (77) (peptide)
peptide: H[dS]QGTFTSDLSKQMESRRAQDFIEWLKKGGPSSGAPPPSK([γGlu-Palmitoyl])-NH2
modifications: N-terminus assumed
SMILES: CCCCCCCCCCCCCCCC(=O)N[C@@H](CCC(=O)NCCCC[C@H](NC(=O)[C@H](CO)NC(=O)[C@@H]1CCCN1C(=O)[C@@H]1CCCN1C(=O)[C@@H]1CCCN1C(=O)[C@H](C)NC(=O)CNC(=O)[C@H](CO)NC(=O)[C@H](CO)NC(=O)[C@@H]1CCCN1C(=O)CNC(=O)CNC(=O)[C@H](CCCCN)NC(=O)[C@H](CCCCN)NC(=O)[C@H](CC(C)C)NC(=O)[C@H](Cc1c[nH]c2ccccc12)NC(=O)[C@H](CCC(=O)O)NC(=O)[C@@H](NC(=O)[C@H](Cc1ccccc1)NC(=O)[C@H](CC(=O)O)NC(=O)[C@H](CCC(N)=O)NC(=O)[C@H](C)NC(=O)[C@H](CCCNC(=N)N)NC(=O)[C@H](CCCNC(=N)N)NC(=O)[C@H](CO)NC(=O)[C@H](CCC(=O)O)NC(=O)[C@H](CCSC)NC(=O)[C@H](CCC(N)=O)NC(=O)[C@H](CCCCN)NC(=O)[C@H](CO)NC(=O)[C@H](CC(C)C)NC(=O)[C@H](CC(=O)O)NC(=O)[C@H](CO)NC(=O)[C@@H](NC(=O)[C@H](Cc1ccccc1)NC(=O)[C@@H](NC(=O)CNC(=O)[C@H](CCC(N)=O)NC(=O)[C@@H](CO)NC(=O)[C@@H](N)Cc1c[nH]cn1)[C@@H](C)O)[C@@H](C)O)[C@@H](C)CC)C(N)=O)C(=O)O
B6: SEQ ID NO: (69) (peptide)
peptide: H[dS]QGTFTSDLSKQMDKRRAQDFIEWLKNGGPSSGAPPPSK([γGlu-Palmitoyl])-NH2
modifications: N-terminus assumed
SMILES: CCCCCCCCCCCCCCCC(=O)N[C@@H](CCC(=O)NCCCC[C@H](NC(=O)[C@H](CO)NC(=O)[C@@H]1CCCN1C(=O)[C@@H]1CCCN1C(=O)[C@@H]1CCCN1C(=O)[C@H](C)NC(=O)CNC(=O)[C@H](CO)NC(=O)[C@H](CO)NC(=O)[C@@H]1CCCN1C(=O)CNC(=O)CNC(=O)[C@H](CC(N)=O)NC(=O)[C@H](CCCCN)NC(=O)[C@H](CC(C)C)NC(=O)[C@H](Cc1c[nH]c2ccccc12)NC(=O)[C@H](CCC(=O)O)NC(=O)[C@@H](NC(=O)[C@H](Cc1ccccc1)NC(=O)[C@H](CC(=O)O)NC(=O)[C@H](CCC(N)=O)NC(=O)[C@H](C)NC(=O)[C@H](CCCNC(=N)N)NC(=O)[C@H](CCCNC(=N)N)NC(=O)[C@H](CCCCN)NC(=O)[C@H](CC(=O)O)NC(=O)[C@H](CCSC)NC(=O)[C@H](CCC(N)=O)NC(=O)[C@H](CCCCN)NC(=O)[C@H](CO)NC(=O)[C@H](CC(C)C)NC(=O)[C@H](CC(=O)O)NC(=O)[C@H](CO)NC(=O)[C@@H](NC(=O)[C@H](Cc1ccccc1)NC(=O)[C@@H](NC(=O)CNC(=O)[C@H](CCC(N)=O)NC(=O)[C@@H](CO)NC(=O)[C@@H](N)Cc1c[nH]cn1)[C@@H](C)O)[C@@H](C)O)[C@@H](C)CC)C(N)=O)C(=O)O
B7: SEQ ID NO: (75) (peptide)
peptide: H[dS]QGTFTSDLSKQMESRRAQDFIEWLKRGGPSSGAPPPSK([γGlu-Palmitoyl])-NH2
modifications: N-terminus assumed
SMILES: CCCCCCCCCCCCCCCC(=O)N[C@@H](CCC(=O)NCCCC[C@H](NC(=O)[C@H](CO)NC(=O)[C@@H]1CCCN1C(=O)[C@@H]1CCCN1C(=O)[C@@H]1CCCN1C(=O)[C@H](C)NC(=O)CNC(=O)[C@H](CO)NC(=O)[C@H](CO)NC(=O)[C@@H]1CCCN1C(=O)CNC(=O)CNC(=O)[C@H](CCCNC(=N)N)NC(=O)[C@H](CCCCN)NC(=O)[C@H](CC(C)C)NC(=O)[C@H](Cc1c[nH]c2ccccc12)NC(=O)[C@H](CCC(=O)O)NC(=O)[C@@H](NC(=O)[C@H](Cc1ccccc1)NC(=O)[C@H](CC(=O)O)NC(=O)[C@H](CCC(N)=O)NC(=O)[C@H](C)NC(=O)[C@H](CCCNC(=N)N)NC(=O)[C@H](CCCNC(=N)N)NC(=O)[C@H](CO)NC(=O)[C@H](CCC(=O)O)NC(=O)[C@H](CCSC)NC(=O)[C@H](CCC(N)=O)NC(=O)[C@H](CCCCN)NC(=O)[C@H](CO)NC(=O)[C@H](CC(C)C)NC(=O)[C@H](CC(=O)O)NC(=O)[C@H](CO)NC(=O)[C@@H](NC(=O)[C@H](Cc1ccccc1)NC(=O)[C@@H](NC(=O)CNC(=O)[C@H](CCC(N)=O)NC(=O)[C@@H](CO)NC(=O)[C@@H](N)Cc1c[nH]cn1)[C@@H](C)O)[C@@H](C)O)[C@@H](C)CC)C(N)=O)C(=O)O

biological target: human GLP-1 receptor (human, UniProt P43220 24-463); assay: cell-based or functional assay

B1 and B2 are within 1.5-fold of each other in “EC50 hGLP-1R (cAMP formation)” value: 0.0044 nM for the first, 0.0048 nM for the second.

Going from B3 to B4, the “EC50 hGLP-1R (cAMP formation)” value falls from 0.0396 nM to 0.005 nM (7.9-fold).

Compared with B5, B6 is 2.5-fold higher in “EC50 hGLP-1R (cAMP formation)” value: 0.003 nM for the first, 0.0076 nM for the second.

B7 was tested, and the “EC50 hGLP-1R (cAMP formation)” value was 0.0046 nM.

biological target: human glucagon receptor (human, UniProt P47871 26-477); assay: cell-based or functional assay
Sequence (P47871 26-477): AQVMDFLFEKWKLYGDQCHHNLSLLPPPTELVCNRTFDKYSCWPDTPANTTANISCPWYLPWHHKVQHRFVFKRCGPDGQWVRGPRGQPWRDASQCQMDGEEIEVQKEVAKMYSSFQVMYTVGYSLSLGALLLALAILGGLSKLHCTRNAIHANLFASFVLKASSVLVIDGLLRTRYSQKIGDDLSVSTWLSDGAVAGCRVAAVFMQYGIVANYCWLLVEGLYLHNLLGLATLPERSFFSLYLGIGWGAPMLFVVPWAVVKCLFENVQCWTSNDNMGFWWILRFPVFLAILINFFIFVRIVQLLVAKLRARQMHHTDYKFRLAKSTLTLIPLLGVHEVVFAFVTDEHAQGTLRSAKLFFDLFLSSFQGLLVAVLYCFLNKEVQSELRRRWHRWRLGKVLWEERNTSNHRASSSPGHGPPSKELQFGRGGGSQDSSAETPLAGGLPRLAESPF

First: B1
Second: B2
The “EC50 hGlucagonR (cAMP formation)” value of the first is 3.5-fold lower: 0.0212 nM for the first, 0.0741 nM for the second.

Compared with B3, B4 is 2.1-fold lower in “EC50 hGlucagonR (cAMP formation)” value: 0.0355 nM for the first, 0.0172 nM for the second.

Compared with B5, B6 is 6.3-fold lower in “EC50 hGlucagonR (cAMP formation)” value: 0.0372 nM for the first, 0.0059 nM for the second.

With B7 the “EC50 hGlucagonR (cAMP formation)” value was 0.0641 nM.
